The target in the experiment is monoclonal antibody NBH133A1-2B4. As to the kind of experiment: competitive ELISA: standard peptide competes with coated …-K-Biotin for HRP-labelled antibody.

A word on the IC50: it is the concentration that inhibits the measured activity by half. NLLNLNKDKE [standard peptide …] gave a concentration for half-maximal inhibition (IC50) of 0.0117 µg/mL.

The values are drawn from patent EP4259652B1.
